Measurements taken from US20160002357A1 (Pfizer, published 2016).
Positions count from the first letter of the chain named.

B1: anti-P-cadherin scFv 153 alanine-mutant H1.1-Ala (scFv, V domains shown)
VH: EVQLVQSGAEVKKPGASVKVSCKASAYTFTSYGISWVRQAPGQGLEWMGWISAYNGNTNYAQKLQGRVTMTTDTSTSTAYMELRSLRSDDTAVYYCATIDTANAFGIWGQGTMVTVSS
VL: QSVLTQPPSVSAAPGQKVTISCSGSSSNIGNNYVSWYQQLPGTAPKLLIYDNNKRPSGIPDRFSGSKSGTSATLGITGLQTGDEADYYCGTWDSSLSGVVFGGGTKLTVL
notes: scFv on phage
B2: anti-P-cadherin scFv 153 alanine-mutant H1.4-Ala (scFv, V domains shown)
VH: B1 VH with A26G, F29A
VL: B1 VL
notes: scFv on phage
B3: anti-P-cadherin scFv 153 alanine-mutant H2.11-Ala (scFv, V domains shown)
VH: B1 VH with A26G, Y60A
VL: B1 VL
notes: scFv on phage
B4: anti-P-cadherin scFv 153 alanine-mutant H1.5-Ala (scFv, V domains shown)
VH: B1 VH with A26G, T30A
VL: B1 VL
notes: scFv on phage
B5: anti-P-cadherin scFv 153 alanine-mutant H2.16-Ala (scFv, V domains shown)
VH: B1 VH with A26G, Q65A
VL: B1 VL
notes: scFv on phage
B6: anti-P-cadherin scFv 153 alanine-mutant H2.15-Ala (scFv, V domains shown)
VH: B1 VH with A26G, L64A
VL: B1 VL
notes: scFv on phage
B7: anti-P-cadherin scFv 153 alanine-mutant H3.9-Ala (scFv, V domains shown)
VH: B1 VH with A26G, I107A
VL: B1 VL
notes: scFv on phage
B8: anti-P-cadherin scFv 153 alanine-mutant H2.10-Ala (scFv, V domains shown)
VH: B1 VH with A26G, N59A
VL: B1 VL
notes: scFv on phage
B9: anti-P-cadherin scFv 153 alanine-mutant H1.10-Ala (scFv, V domains shown)
VH: B1 VH with A26G, S35A
VL: B1 VL
notes: scFv on phage
B10: anti-P-cadherin scFv 153 alanine-mutant H1.7-Ala (scFv, V domains shown)
VH: B1 VH with A26G, Y32A
VL: B1 VL
notes: scFv on phage
B11: anti-P-cadherin scFv 153 alanine-mutant H3.7-Ala (scFv, V domains shown)
VH: B1 VH with A26G, F105A
VL: B1 VL
notes: scFv on phage
B12: anti-P-cadherin scFv 153 alanine-mutant H2.14-Ala (scFv, V domains shown)
VH: B1 VH with A26G, K63A
VL: B1 VL
notes: scFv on phage
B13: anti-P-cadherin scFv 153 alanine-mutant H2.17-Ala (scFv, V domains shown)
VH: B1 VH with A26G, G66A
VL: B1 VL
notes: scFv on phage
B14: anti-P-cadherin scFv 153 alanine-mutant H1.9-Ala (scFv, V domains shown)
VH: B1 VH with A26G, I34A
VL: B1 VL
notes: scFv on phage
B15: anti-P-cadherin scFv 153 alanine-mutant H1.6-Ala (scFv, V domains shown)
VH: B1 VH with A26G, S31A
VL: B1 VL
notes: scFv on phage
B16: anti-P-cadherin scFv 153 alanine-mutant H2.5-Ala (scFv, V domains shown)
VH: B1 VH with A26G, Y54A
VL: B1 VL
notes: scFv on phage
B17: anti-P-cadherin scFv 153 alanine-mutant H3.1-Ala (scFv, V domains shown)
VH: B1 VH with A26G, I99A
VL: B1 VL
notes: scFv on phage
B18: anti-P-cadherin scFv 153 alanine-mutant H1.3-Ala (scFv, V domains shown)
VH: B1 VH with A26G, T28A
VL: B1 VL
notes: scFv on phage
B19: anti-P-cadherin scFv 153 alanine-mutant H1.2-Ala (scFv, V domains shown)
VH: B1 VH with A26G, Y27A
VL: B1 VL
notes: scFv on phage
B20: anti-P-cadherin scFv 153 alanine-mutant H2.3-Ala (scFv, V domains shown)
VH: B1 VH with A26G, S52A
VL: B1 VL
notes: scFv on phage
B21: anti-P-cadherin scFv 153 alanine-mutant H2.2-Ala (scFv, V domains shown)
VH: B1 VH with A26G, I51A
VL: B1 VL
notes: scFv on phage
B22: anti-P-cadherin scFv 153 alanine-mutant H3.8-Ala (scFv, V domains shown)
VH: B1 VH with A26G, G106A
VL: B1 VL
notes: scFv on phage
B23: anti-P-cadherin scFv 153 alanine-mutant H2.1-Ala (scFv, V domains shown)
VH: B1 VH with A26G, W50A
VL: B1 VL
notes: scFv on phage
B24: anti-P-cadherin scFv 153 alanine-mutant H3.2-Ala (scFv, V domains shown)
VH: B1 VH with A26G, D100A
VL: B1 VL
notes: scFv on phage
B25: anti-P-cadherin scFv 153 alanine-mutant H2.8-Ala (scFv, V domains shown)
VH: B1 VH with A26G, N57A
VL: B1 VL
notes: scFv on phage
B26: anti-P-cadherin scFv 153 alanine-mutant H2.13-Ala (scFv, V domains shown)
VH: B1 VH with A26G, Q62A
VL: B1 VL
notes: scFv on phage
B27: anti-P-cadherin scFv 153 alanine-mutant H1.8-Ala (scFv, V domains shown)
VH: B1 VH with A26G, G33A
VL: B1 VL
notes: scFv on phage
B28: anti-P-cadherin scFv 153 alanine-mutant H2.9-Ala (scFv, V domains shown)
VH: B1 VH with A26G, T58A
VL: B1 VL
notes: scFv on phage
B29: anti-P-cadherin scFv 153 alanine-mutant H3.3-Ala (scFv, V domains shown)
VH: B1 VH with A26G, T101A
VL: B1 VL
notes: scFv on phage
B30: anti-P-cadherin scFv 153 alanine-mutant H3.5-Ala (scFv, V domains shown)
VH: B1 VH with A26G, N103A
VL: B1 VL
notes: scFv on phage
B31: anti-P-cadherin scFv 153 alanine-mutant H2.6-Ala (scFv, V domains shown)
VH: B1 VH with A26G, N55A
VL: B1 VL
notes: scFv on phage
B32: anti-P-cadherin scFv 153 alanine-mutant H2.7-Ala (scFv, V domains shown)
VH: B1 VH with A26G, G56A
VL: B1 VL
notes: scFv on phage

target: T1, P-cadherin-ECD1-3-Fc protein (human P-cadherin-Fc) (human, UniProt P22223 108-440); assay: phage scFv ELISA, coated P-cadherin-ECD1-3-Fc
T1 construct: Construct was expressed with signal peptide and pro-peptide (PACE co-transfected to process the propeptide); not shown: hinge and CH2 and CH3 domains of human IgG1
Experimental: P-cadherin-ECD1-3-Fc protein or negative control protein was coated overnight at 4° C. on 96-well Nunc Maxisorp® plates (Thermo Fisher Scientific, Madison, Conn.) at a concentration of 2 μg/mL in PBS+Ca²⁺ and Mg²⁺. Plates were washed three times using PBS+Ca²⁺ and Mg²⁺ and blocked for 1 hour at room temperature in 3% milk/PBS+Ca²⁺ and Mg²⁺. Phage samples prepared as described above were added to the blocked plates for 1 hour at room temperature. Plates were washed three times with PBS+Ca²⁺ and Mg²⁺ prior to the addition of secondary antibody (anti M13-HRP 1:2000, GE Healthcare, Piscataway, N.J.). Plates were incubated for a further 1 hour at room temperature and washed six times with PBS+Ca²⁺ and Mg²⁺. Signal was developed using TMB (SurModics, Eden Prairie, Minn.), the reaction stopped with H₂SO₄ and the absorbance read at 450 nm on an EnVision® plate reader (Perkin Elmer, Waltham, Mass.).

T1 sequence (P22223 108-440): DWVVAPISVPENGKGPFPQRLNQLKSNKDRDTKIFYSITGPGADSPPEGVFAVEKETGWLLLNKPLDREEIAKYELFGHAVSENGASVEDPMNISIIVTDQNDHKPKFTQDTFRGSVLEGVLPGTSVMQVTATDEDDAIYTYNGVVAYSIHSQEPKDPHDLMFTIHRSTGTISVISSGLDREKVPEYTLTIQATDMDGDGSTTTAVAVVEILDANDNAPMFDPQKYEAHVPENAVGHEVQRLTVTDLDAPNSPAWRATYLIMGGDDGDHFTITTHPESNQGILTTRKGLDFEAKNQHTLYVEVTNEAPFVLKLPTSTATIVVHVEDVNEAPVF

Row | Binder | % of binding of Clone #153 to human P-cadherin-Fc [%] | Human P-cadherin-Fc binding (OD450) | Z Score
1 | B1 | 135 | 1.79 | 0.7
2 | B2 | 177 | 2.33 | 1.6
3 | B3 | 163 | 2.15 | 1.3
4 | B4 | 155 | 2.05 | 1.2
5 | B5 | 68 | 0.9 | -0.7
6 | B6 | 101 | 1.34 | 0
7 | B7 | 61 | 0.8 | -0.8
8 | B8 | 172 | 2.27 | 1.5
9 | B9 | 161 | 2.13 | 1.3
10 | B10 | 129 | 1.71 | 0.6
11 | B11 | 23 | 0.31 | -1.6
12 | B12 | 117 | 1.54 | 0.4
13 | B13 | 162 | 2.14 | 1.3
14 | B14 | 167 | 2.21 | 1.4
15 | B15 | 149 | 1.97 | 1
16 | B16 | 34 | 0.45 | -1.4

Row | Binder | % of binding of Clone #153 to human P-cadherin-Fc [%] | Human P-cadherin-Fc binding (OD450) | Z Score
17 | B17 | 13 | 0.17 | -1.8
18 | B18 | 174 | 2.3 | 1.6
19 | B19 | 179 | 2.36 | 1.7
20 | B20 | 138 | 1.83 | 0.8
21 | B21 | 166 | 2.2 | 1.4
22 | B22 | 103 | 1.36 | 0.1
23 | B23 | 103 | 1.37 | 0.1
24 | B24 | 168 | 2.22 | 1.4
25 | B25 | 162 | 2.14 | 1.3
26 | B26 | 152 | 2.01 | 1.1
27 | B27 | 27 | 0.36 | -1.5
28 | B28 | 154 | 2.03 | 1.1
29 | B29 | 171 | 2.26 | 1.5
30 | B30 | 58 | 0.77 | -0.9
31 | B31 | 80 | 1.06 | -0.4
32 | B32 | 114 | 1.5 | 0.3
